Numbering of substitutions follows the chain as printed.
Key:
[1] = biological target: the molecule itself; assay: cryo-EM structure; αB-AXA fibrils elongated at room temperature for about four weeks, dialysed (1 MDa m.w.c.o.), 0.5 mg/mL; helical and local refinement with D2 symmetry, 3.4 Å
[2] = biological target: the molecule itself; assay: SEC + other: negative-stain electron microscopy; Superose-6 24 mL column; peak fractions examined by negative-stain EM with 2D class averaging; 20 mM HEPES pH 7.4, 150 mM NaCl, 1 mM EDTA

B1: human αB-crystallin NT-AXA variant (natural protein, UniProt P02511 1-175, looked up)
chain: MDAAAHHPWIRRPFFPFHSPSRLFDQFFGEHLLESDLFPTSTSLSPFYLRPPSFLRAPSWFDTGLSEMRLEKDRFSVNLDVKHFSPEELKVKVLGDVIEVHGKHEERQDEHGFISREFHRKYRIPADVDPLTITSSLSSDGVLTVNGPRKQVSGPERTIPITREEKPAVTAAPKK
notes: human αB-crystallin (HSPB5, CRYAB), 20.2 kDa subunit; The cryo-EM model covers residues 75-161; the last 14 residues are not modelled; also called αB-AXA; source: E. coli BL21, purified (Sephacryl 300 SEC, MonoQ ion exchange), no purification tags
Q: Does B1 bind [1]?
A: Result: binds

B2: human wildtype αB-crystallin (natural protein, UniProt P02511 1-175, looked up)
chain: B1 chain with A3I, A5I
notes: human αB-crystallin (HSPB5, CRYAB), 20.2 kDa subunit; pET plasmid containing the human αB-crystallin gene; Polydisperse cage-like oligomers; also called αB-wt; αB-WT; source: E. coli BL21, purified (Sephacryl 300 SEC, MonoQ ion exchange), no purification tags
Q: Does B2 bind [2]?
A: Result: binds

Reference: paper doi:10.1101/2024.03.22.586355, “Dynamic fibrillar assembly of αB-crystallin induced by perturbation of the conserved NT-IXI motif resolved by cryo-EM” (bioRxiv, 2024)
